Source: doi:10.1101/2024.05.23.595586 (bioRxiv, 2024)

Target: T1, MBP-TREM2 N79Q (MBP fused to TREM2 19-134) (human, UniProt Q9NZC2 19-134, N79Q)
T1 sequence (looked up): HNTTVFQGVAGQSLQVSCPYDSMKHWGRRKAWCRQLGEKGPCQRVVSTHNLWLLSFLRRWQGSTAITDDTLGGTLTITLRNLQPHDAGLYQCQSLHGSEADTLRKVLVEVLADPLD
Test: crystal structure

Q: Does DAEFRHDS [Amyloid beta peptide (1-8)] bind?
A: binds
